According to US12116424:

Each substance was assayed against L. monocytogenes AgrC (Listeria monocytogenes (EGD-e)) (assay: cell-based or functional assay).

| Substance | EC50 (agr-GFP reporter, ΔagrD strain) | Max Activation Observed (agr-GFP reporter, ΔagrD strain) | Max Inhibition Observed (agr-GFP reporter, wild-type strain) | IC50 (agr-GFP reporter, wild-type strain) | Max Activation (agr-GFP reporter, ΔagrD strain) | Max Inhibition (agr-GFP reporter, wild-type strain) |
| --- | --- | --- | --- | --- | --- | --- |
| AIP A1dA (peptide) | 96.9 nM | 58.8% | 15.2% |  |  |  |
| AIP C2dC (peptide) | 106 nM | 41% | 48.4% | 3970 nM |  |  |
| AIP F3A (peptide) |  | 9.72% | 3.65% |  |  |  |
| AIP F3dF (peptide) |  | 6.63% | 14.7% |  |  |  |
| AIP F5A (peptide) |  | 6.37% |  |  |  |  |
| AIP F5dF (peptide) | 2180 nM | 72.3% | 2.71% |  |  |  |
| AIP M4A (peptide) | 1980 nM | 53.5% | 7.85% |  |  |  |
| AIP M4dM (peptide) | 10.2 nM | 111% | 3.99% |  |  |  |
| AIP V6A (peptide) | 241 nM | 69% | 15% |  | 69% | 15% |
| AIP V6dV (peptide) | 883 nM | 72.9% |  |  |  |  |
| L. grandensis tr AIP (peptide) |  |  |  |  | 10.1% | 0% |
| L. grayi AIP (peptide) |  |  |  |  | 10.7% | 0.42% |
| L. kieliensis AIP (peptide) |  |  |  |  | 10.4% | 0% |
| L. monocytogenes AIP, A-(C-F-M-F-V) (peptide) | 29.6 nM |  |  |  | 114% | 2.66% |
| L. newyorkensis AIP (peptide) |  |  |  |  | 23.6% | 0.96% |
| L. weihenstephanensis AIP (peptide) |  |  |  |  | 11.2% | 0% |
| Lm AIP F3S (peptide) |  |  |  |  | 16.1% | 16.3% |

Target: L. monocytogenes AgrC (Listeria monocytogenes (EGD-e))
Test: cell-based or functional assay
Remark: another data set of the same source

| Substance | IC50 (agr-GFP reporter, wild-type strain) | Max Activation Observed (agr-GFP reporter, ΔagrD strain) | Max Inhibition Observed (agr-GFP reporter, wild-type strain) | EC50 (agr-GFP reporter, ΔagrD strain) |
| --- | --- | --- | --- | --- |
| AIP A1K/C2dC/M4dM (peptide) | 1770 nM | 8.1% | 88.6% |  |
| AIP A1K/M4dM (peptide) |  | 74.1% | 20.2% | 4.18 nM |
| AIP A1P (peptide) | 611 nM | 76.8% | 23.7% | 29 nM |
| AIP A1T (peptide) | 420 nM | 88.1% | 11.7% | 35.2 nM |
| AIP A1V (peptide) |  | 109% | 1.63% | 7.67 nM |
| AIP C2Dap (peptide) |  | 92.9% | 5.32% | 342 nM |
| AIP C2dC/M4dM (peptide) | 242 nM | 35.7% | 64.8% | 24.1 nM |
| AIP C2dDap (peptide) |  | 14.3% | 19.3% |  |
| AIP F3H (peptide) |  | 12.4% | 24.9% |  |
| AIP F3L (peptide) | 3600 nM | 37.6% | 33.4% | 693 nM |
| AIP F3W (peptide) | 2180 nM | 60.6% | 27.1% | 414 nM |
| AIP F3Y (peptide) | 3460 nM | 47.4% | 33.4% | 518 nM |
| AIP F5H (peptide) |  | 7.13% | 2.19% |  |
| AIP F5L (peptide) |  | 64.8% | 8.97% | 2060 nM |
| AIP F5W (peptide) |  | 85.8% | 8.43% | 1130 nM |
| AIP F5Y (peptide) |  | 44.4% | 6.61% | 5620 nM |
| AIP M4dA (peptide) |  | 82% | 9.54% | 455 nM |
| L. monocytogenes AIP, A-(C-F-M-F-V) (peptide) |  | 114% |  | 29.7 nM |
